Data on two molecules can be found in article doi:10.1101/2022.03.18.484873 (bioRxiv, 2022).

In the assay the target is original 2019-nCoV Spike RBD protein (SARS-CoV-2, original 2019-nCoV (Wuhan), UniProt P0DTC2). As to the kind of experiment: Luminex bead-based competitive binding assay.

B1: P5C3 human monoclonal antibody (P5C3 LS) (antibody, V domains shown)
VH: QMQLVQSGPEVKKPGTSVKVSCKASGFTFTSSAVQWVRQARGQRLEWIGWIVVGSGNTDYAQQFQERVTITRDMSTSTAYMELSSLGSEDTAVYYCAAPNCSGGSCYDGFDLWGQGTMVTVSS
VL: EIVLTQSPGTLSLSPGERATLSCRGSQSVRSSYLGWYQQKPGQAPRLLIYGASSRATGIPDRFSGSGSGTDFTLTISRLEPEDFAVYYCQQYGSSPWTFGQGTKVEIK
As to B1, the binding result is on record as “binds”.

B2: P2G3 human monoclonal antibody (P2G3 LS, human IgG1) (antibody, V domains shown)
VH: EVQLVESGGGLVQPGRSLRLSCAASGFRFDDYALHWVRQAPEKGLEWVSGISWNSNNIGYAESVKGRFTISRDTAKKSLYLQMNDLRAEDTALYYCVKDRHYDSSGYFVNGFDIWGQGTLVTVSA
VL: DIQLTQSPSFLSASVGDRVTVTCRASQGISSYVAWYQQKAGKAPTLLIYTASTLQSGVPSRFSGSGSGTEFTLTISSLQPEDFATYYCQQLHSYPVTFGQGTRLDIE
With B2, the binding result was “binds”.
